The text below walks through data of US20180155451A1 (published 2018).

Sequences and labels used below:
B1: GpH7-A5/GpH7-B3 variant P271_06M/GpL16-k0 (He Ab) (antibody, human IgG1, kappa)
heavy 1: not shown
heavy 2: not shown
light: DIVMTQSPLSLPVTPGEPASISCQASESLVHSNRNTYLHWYLQKPGQSPQLLIYKVSNRFSGVPDRFSGSGSGTDFTLKISRVEAEDVGVYYCSQNTHVPPTFGQGTKVEIERTVAAPSVFIFPPSDEQLKSGTASVVCLLNNFYPREAKVQWKVDNALQSGNSQESVTEQDSKDSTYSLSSTLTLSKADYEKHKVYACEVTHQGLSSPVTKSFNRGEC
notes: He Ab: alteration only in the GpH7-B3 chain
B2: GpH7-A5/GpH7-B3 variant Q295_18N/GpL16-k0 (He Ab) (antibody, human IgG1, kappa)
heavy 1: not shown
heavy 2: not shown
light: DIVMTQSPLSLPVTPGEPASISCQASESLVHSNRNTYLHWYLQKPGQSPQLLIYKVSNRFSGVPDRFSGSGSGTDFTLKISRVEAEDVGVYYCSQNTHVPPTFGQGTKVEIERTVAAPSVFIFPPSDEQLKSGTASVVCLLNNFYPREAKVQWKVDNALQSGNSQESVTEQDSKDSTYSLSSTLTLSKADYEKHKVYACEVTHQGLSSPVTKSFNRGEC
notes: as for B1
B3: GpH7-A5/GpH7-B3 variant Q295_14T/GpL16-k0 (He Ab) (antibody, human IgG1, kappa)
heavy 1: not shown
heavy 2: not shown
light: DIVMTQSPLSLPVTPGEPASISCQASESLVHSNRNTYLHWYLQKPGQSPQLLIYKVSNRFSGVPDRFSGSGSGTDFTLKISRVEAEDVGVYYCSQNTHVPPTFGQGTKVEIERTVAAPSVFIFPPSDEQLKSGTASVVCLLNNFYPREAKVQWKVDNALQSGNSQESVTEQDSKDSTYSLSSTLTLSKADYEKHKVYACEVTHQGLSSPVTKSFNRGEC
notes: as for B1
B4: GpH7-A5/GpH7-B3 variant Q295_02A/GpL16-k0 (He Ab) (antibody, human IgG1, kappa)
heavy 1: not shown
heavy 2: not shown
light: DIVMTQSPLSLPVTPGEPASISCQASESLVHSNRNTYLHWYLQKPGQSPQLLIYKVSNRFSGVPDRFSGSGSGTDFTLKISRVEAEDVGVYYCSQNTHVPPTFGQGTKVEIERTVAAPSVFIFPPSDEQLKSGTASVVCLLNNFYPREAKVQWKVDNALQSGNSQESVTEQDSKDSTYSLSSTLTLSKADYEKHKVYACEVTHQGLSSPVTKSFNRGEC
notes: as for B1
B5: GpH7-A5/GpH7-B3 variant P271_07I/GpL16-k0 (He Ab) (antibody, human IgG1, kappa)
heavy 1: not shown
heavy 2: not shown
light: DIVMTQSPLSLPVTPGEPASISCQASESLVHSNRNTYLHWYLQKPGQSPQLLIYKVSNRFSGVPDRFSGSGSGTDFTLKISRVEAEDVGVYYCSQNTHVPPTFGQGTKVEIERTVAAPSVFIFPPSDEQLKSGTASVVCLLNNFYPREAKVQWKVDNALQSGNSQESVTEQDSKDSTYSLSSTLTLSKADYEKHKVYACEVTHQGLSSPVTKSFNRGEC
notes: as for B1
B6: GpH7-A5/GpH7-B3 variant P271_12R/GpL16-k0 (He Ab) (antibody, human IgG1, kappa)
heavy 1: not shown
heavy 2: not shown
light: DIVMTQSPLSLPVTPGEPASISCQASESLVHSNRNTYLHWYLQKPGQSPQLLIYKVSNRFSGVPDRFSGSGSGTDFTLKISRVEAEDVGVYYCSQNTHVPPTFGQGTKVEIERTVAAPSVFIFPPSDEQLKSGTASVVCLLNNFYPREAKVQWKVDNALQSGNSQESVTEQDSKDSTYSLSSTLTLSKADYEKHKVYACEVTHQGLSSPVTKSFNRGEC
notes: as for B1
B7: GpH7-A5/GpH7-B3 variant S267_01G/GpL16-k0 (He Ab) (antibody, human IgG1, kappa)
heavy 1: not shown
heavy 2: not shown
light: DIVMTQSPLSLPVTPGEPASISCQASESLVHSNRNTYLHWYLQKPGQSPQLLIYKVSNRFSGVPDRFSGSGSGTDFTLKISRVEAEDVGVYYCSQNTHVPPTFGQGTKVEIERTVAAPSVFIFPPSDEQLKSGTASVVCLLNNFYPREAKVQWKVDNALQSGNSQESVTEQDSKDSTYSLSSTLTLSKADYEKHKVYACEVTHQGLSSPVTKSFNRGEC
notes: as for B1
B8: GpH7-A5/GpH7-B3 variant Q295_05P/GpL16-k0 (He Ab) (antibody, human IgG1, kappa)
heavy 1: not shown
heavy 2: not shown
light: DIVMTQSPLSLPVTPGEPASISCQASESLVHSNRNTYLHWYLQKPGQSPQLLIYKVSNRFSGVPDRFSGSGSGTDFTLKISRVEAEDVGVYYCSQNTHVPPTFGQGTKVEIERTVAAPSVFIFPPSDEQLKSGTASVVCLLNNFYPREAKVQWKVDNALQSGNSQESVTEQDSKDSTYSLSSTLTLSKADYEKHKVYACEVTHQGLSSPVTKSFNRGEC
notes: as for B1
B9: GpH7-A5/GpH7-B3 variant S298_03V/GpL16-k0 (He Ab) (antibody, human IgG1, kappa)
heavy 1: not shown
heavy 2: not shown
light: DIVMTQSPLSLPVTPGEPASISCQASESLVHSNRNTYLHWYLQKPGQSPQLLIYKVSNRFSGVPDRFSGSGSGTDFTLKISRVEAEDVGVYYCSQNTHVPPTFGQGTKVEIERTVAAPSVFIFPPSDEQLKSGTASVVCLLNNFYPREAKVQWKVDNALQSGNSQESVTEQDSKDSTYSLSSTLTLSKADYEKHKVYACEVTHQGLSSPVTKSFNRGEC
notes: as for B1
B10: GpH7-A5/GpH7-B3 variant S239_01G/GpL16-k0 (He Ab) (antibody, human IgG1, kappa)
heavy 1: not shown
heavy 2: not shown
light: DIVMTQSPLSLPVTPGEPASISCQASESLVHSNRNTYLHWYLQKPGQSPQLLIYKVSNRFSGVPDRFSGSGSGTDFTLKISRVEAEDVGVYYCSQNTHVPPTFGQGTKVEIERTVAAPSVFIFPPSDEQLKSGTASVVCLLNNFYPREAKVQWKVDNALQSGNSQESVTEQDSKDSTYSLSSTLTLSKADYEKHKVYACEVTHQGLSSPVTKSFNRGEC
notes: as for B1
B11: GpH7-A5/GpH7-B3 variant S298_07I/GpL16-k0 (He Ab) (antibody, human IgG1, kappa)
heavy 1: not shown
heavy 2: not shown
light: DIVMTQSPLSLPVTPGEPASISCQASESLVHSNRNTYLHWYLQKPGQSPQLLIYKVSNRFSGVPDRFSGSGSGTDFTLKISRVEAEDVGVYYCSQNTHVPPTFGQGTKVEIERTVAAPSVFIFPPSDEQLKSGTASVVCLLNNFYPREAKVQWKVDNALQSGNSQESVTEQDSKDSTYSLSSTLTLSKADYEKHKVYACEVTHQGLSSPVTKSFNRGEC
notes: as for B1

For this assay, the target named is T1, FcγRIa extracellular domain with C-terminal His tag (human, UniProt P12314 16-292).
T1 construct: extracellular domain; Expressed in FreeStyle293 cells; analyte in Biacore; also called FcgRI; FcgRIa
T1 sequence (P12314 16-292): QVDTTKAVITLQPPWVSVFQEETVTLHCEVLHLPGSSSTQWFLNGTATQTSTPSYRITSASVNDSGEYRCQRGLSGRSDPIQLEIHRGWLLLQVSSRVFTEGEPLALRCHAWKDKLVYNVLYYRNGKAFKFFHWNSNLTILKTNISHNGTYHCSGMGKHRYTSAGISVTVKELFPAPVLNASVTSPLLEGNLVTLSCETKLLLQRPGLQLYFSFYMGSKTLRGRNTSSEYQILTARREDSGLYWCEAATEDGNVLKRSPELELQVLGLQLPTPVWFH
As to the kind of experiment: SPR Biacore, antibody captured, FcγRIa analyte; vs GpH7-A5/GpH7-B3/GpL16-k0 = 100. In general terms: SPR reads the build-up and loss of mass on a sensor chip optically.
In the case of B1, the He/Con_1a is 102 relative (control = 100). The result for B2 reads 102 relative (control = 100). With B3 the figure was 103 relative (control = 100); with B4, 104 relative (control = 100). The result for B5 reads 102 relative (control = 100); that for B6, 102 relative (control = 100). For B7, the He/Con_1a was 103 relative (control = 100).

In the case of B8, the He/Con_1a is 103 relative (control = 100).

On to B9, for which the He/Con_1a was 110 relative (control = 100). With B10 the figure was 101 relative (control = 100); with B11, 107 relative (control = 100).
